Target: RBSDV P9-1 as used in vitro (data not shown) (Rice black-streaked dwarf virus)
Experiment: not stated; P9-1 dimers in vitro; data not shown

In the case of “RBSDV P9-1 as used in vitro (data not shown) (natural protein)”, the stoichiometry N is reported as 2.
